{"source": "paper PMC11543927", "about": "“Subtleties in Clathrin heavy chain binding boxes provide selectivity among adaptor proteins of budding yeast” (Nature Communications, 2024)", "test_in_all_cases": "nanoDSF thermal shift; ScChc-NTD mutants 10 µM with Ent1 or Ent2 peptide, thermal ramp up to 80 °C; apparent KD from the Tm shift model", "conditions_in_all_cases": "both partners purified", "key": {"[1]": {"biological_target": "T1, ScChc-NTD Clathrin and W box mutant (Cla+W) (Saccharomyces cerevisiae, UniProt P22137 1-369, F26A | K63E | I87D | Q89A | K98E | Q155A)", "T1 construct": "Clathrin heavy chain N-terminal domain, Saccharomyces cerevisiae, residues 1-369, Clathrin and W box mutant", "T1 sequence (looked up)": "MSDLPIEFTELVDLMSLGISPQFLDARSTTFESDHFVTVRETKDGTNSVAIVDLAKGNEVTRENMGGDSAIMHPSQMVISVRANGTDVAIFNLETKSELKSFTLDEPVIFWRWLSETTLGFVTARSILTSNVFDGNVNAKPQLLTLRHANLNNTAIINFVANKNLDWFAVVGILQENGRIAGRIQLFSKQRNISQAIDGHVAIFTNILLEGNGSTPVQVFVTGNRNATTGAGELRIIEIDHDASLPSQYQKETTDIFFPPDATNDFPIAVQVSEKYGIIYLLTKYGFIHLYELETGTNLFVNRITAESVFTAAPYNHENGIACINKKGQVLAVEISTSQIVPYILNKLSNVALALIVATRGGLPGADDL"}, "[2]": {"biological_target": "T2, ScChc-NTD Arrestin and W box mutant (Arr+W) (Saccharomyces cerevisiae, UniProt P22137 1-369, F26A | Q155A | Q195A | I197T | K251E)", "T2 construct": "Clathrin heavy chain N-terminal domain, Saccharomyces cerevisiae, residues 1-369, Arrestin and W box mutant", "T2 sequence (looked up)": "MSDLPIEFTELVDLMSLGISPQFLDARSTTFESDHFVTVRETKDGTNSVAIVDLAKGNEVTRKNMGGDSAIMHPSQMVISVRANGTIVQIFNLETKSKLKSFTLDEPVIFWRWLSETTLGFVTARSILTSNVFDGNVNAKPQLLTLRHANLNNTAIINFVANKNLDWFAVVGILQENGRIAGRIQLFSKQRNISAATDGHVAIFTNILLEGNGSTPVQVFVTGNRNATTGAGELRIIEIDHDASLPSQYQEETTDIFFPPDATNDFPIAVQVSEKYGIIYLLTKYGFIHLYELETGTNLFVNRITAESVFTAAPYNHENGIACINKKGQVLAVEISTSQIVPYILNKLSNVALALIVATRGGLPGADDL"}, "[3]": {"biological_target": "T3, ScChc-NTD W-box mutant (F26A, Q155A) (Saccharomyces cerevisiae, UniProt P22137 1-369, F26A | Q155A)", "T3 construct": "Clathrin heavy chain N-terminal domain, Saccharomyces cerevisiae, residues 1-369, W-box mutant; also called W mutant", "T3 sequence (looked up)": "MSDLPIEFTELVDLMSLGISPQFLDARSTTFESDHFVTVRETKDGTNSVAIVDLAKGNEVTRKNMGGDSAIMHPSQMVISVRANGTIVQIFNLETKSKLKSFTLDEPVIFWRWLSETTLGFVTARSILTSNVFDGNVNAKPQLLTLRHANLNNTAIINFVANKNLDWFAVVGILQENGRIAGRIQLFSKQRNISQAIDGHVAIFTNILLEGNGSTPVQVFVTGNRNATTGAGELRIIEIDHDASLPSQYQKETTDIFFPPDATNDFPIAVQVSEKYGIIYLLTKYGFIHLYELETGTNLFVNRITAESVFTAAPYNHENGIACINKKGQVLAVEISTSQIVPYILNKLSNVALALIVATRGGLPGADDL"}, "[4]": {"biological_target": "T4, ScChc-NTD Clathrin, Arrestin and W box mutant (Cla+Arr+W) (Saccharomyces cerevisiae, UniProt P22137 1-369, F26A | K63E | I87D | Q89A | K98E | Q155A | Q195A | I197T | K251E)", "T4 construct": "Clathrin heavy chain N-terminal domain, Saccharomyces cerevisiae, residues 1-369, Clathrin, Arrestin and W box mutant; also called triple mutant", "T4 sequence (looked up)": "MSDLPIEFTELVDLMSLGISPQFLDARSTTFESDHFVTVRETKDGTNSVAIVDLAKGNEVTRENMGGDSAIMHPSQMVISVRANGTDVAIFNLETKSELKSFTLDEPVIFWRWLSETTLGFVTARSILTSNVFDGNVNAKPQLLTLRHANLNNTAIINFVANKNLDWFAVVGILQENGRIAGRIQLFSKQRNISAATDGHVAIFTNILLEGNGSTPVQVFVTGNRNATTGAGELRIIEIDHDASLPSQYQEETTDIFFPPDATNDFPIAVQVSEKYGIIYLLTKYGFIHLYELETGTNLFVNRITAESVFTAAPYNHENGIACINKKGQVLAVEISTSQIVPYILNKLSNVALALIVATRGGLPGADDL"}, "[5]": {"biological_target": "T5, ScChc-NTD Clathrin and Arrestin box mutant (Cla+Arr) (Saccharomyces cerevisiae, UniProt P22137 1-369, K63E | I87D | Q89A | K98E | Q195A | I197T | K251E)", "T5 construct": "Clathrin heavy chain N-terminal domain, Saccharomyces cerevisiae, residues 1-369, Clathrin and Arrestin box mutant", "T5 sequence (looked up)": "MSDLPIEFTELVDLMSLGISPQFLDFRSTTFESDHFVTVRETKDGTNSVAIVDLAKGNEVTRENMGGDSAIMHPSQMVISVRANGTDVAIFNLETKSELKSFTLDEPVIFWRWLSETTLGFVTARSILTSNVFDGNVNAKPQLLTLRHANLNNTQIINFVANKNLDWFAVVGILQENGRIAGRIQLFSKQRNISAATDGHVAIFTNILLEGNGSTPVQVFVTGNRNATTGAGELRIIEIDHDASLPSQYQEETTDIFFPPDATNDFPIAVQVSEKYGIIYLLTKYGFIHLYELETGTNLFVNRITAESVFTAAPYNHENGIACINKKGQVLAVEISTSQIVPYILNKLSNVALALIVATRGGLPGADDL"}}}
{"binder": "GVSLIDL (also called Ent2 peptide; source: synthetic peptide, bought: NovoProLabs)", "note": "[Ent2 CBM peptide (GVSLIDL)]", "values": [{"measurement": "fold decrease in binding against WT NTD", "setting": "[1]", "value": "~9", "unit": "fold"}, {"measurement": "binding result", "setting": "[2]", "value": "binds"}, {"measurement": "binding result", "setting": "[3]", "value": "binds"}, {"measurement": "Kd", "setting": "[4]", "value": "~1040", "unit": "µM"}, {"measurement": "fold decrease in affinity against WT NTD", "setting": "[5]", "value": "~5", "unit": "fold"}]}
{"binder": "GYTLIDL (also called Ent1 peptide; source: synthetic peptide, bought: NovoProLabs)", "note": "[Ent1 CBM peptide (GYTLIDL)]", "values": [{"measurement": "fold decrease in binding against WT NTD", "setting": "[1]", "value": "~9", "unit": "fold"}, {"measurement": "binding result", "setting": "[2]", "value": "binds"}, {"measurement": "binding result", "setting": "[3]", "value": "binds"}, {"measurement": "Kd", "setting": "[4]", "value": "~3450", "unit": "µM"}, {"measurement": "Kd", "setting": "[5]", "value": "~2050", "unit": "µM"}]}
